Measurements published in paper PMC6644751 (2018).
Like-named read-outs stand apart in the source and are kept apart here.

T1: S100B (Homo sapiens, UniProt P04271)
T1 chain: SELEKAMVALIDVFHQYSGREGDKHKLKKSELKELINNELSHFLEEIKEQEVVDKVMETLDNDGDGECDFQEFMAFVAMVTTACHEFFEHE

T2: S100A11 (Homo sapiens, UniProt P31949)
T2 chain: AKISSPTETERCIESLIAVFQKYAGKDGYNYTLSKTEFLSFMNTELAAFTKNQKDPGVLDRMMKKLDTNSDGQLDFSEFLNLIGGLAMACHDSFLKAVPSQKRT


Tests used:
Test in all cases: HSQC-NMR titration
S100B [1] = target: T1, S100B
S100B [2] = target: T1, S100B
S100A11 = target: T2, S100A11

Row | Kd (S100B [1]) | Kd (S100B [2]) | Kd (S100A11) | Binder
1 | ~2800 nM | ~2650 nM |  | S100A11 (protein, Ca2+, monomers after urea denaturation/renaturation) AKISSPTETERCIESLIAVFQKYAGKDGYNYTLSKTEFLSFMNTELAAFTKNQKDPGVLDRMMKKLDTNSDGQLDFSEFLNLIGGLAMACHDSFLKAVPSQKRT
2 |  |  | ~2500 nM | S100B (protein, Ca2+, monomers after urea denaturation/renaturation) SELEKAMVALIDVFHQYSGREGDKHKLKKSELKELINNELSHFLEEIKEQEVVDKVMETLDNDGDGECDFQEFMAFVAMVTTACHEFFEHE
